According to patent US20230330222A1 (ASCENDO BIOTECHNOLOGY, published 2023):

T1: recombinant CD14 (human, UniProt P08571 20-352, limits assumed)
T1 construct: also called hCD14
T1 sequence (looked up): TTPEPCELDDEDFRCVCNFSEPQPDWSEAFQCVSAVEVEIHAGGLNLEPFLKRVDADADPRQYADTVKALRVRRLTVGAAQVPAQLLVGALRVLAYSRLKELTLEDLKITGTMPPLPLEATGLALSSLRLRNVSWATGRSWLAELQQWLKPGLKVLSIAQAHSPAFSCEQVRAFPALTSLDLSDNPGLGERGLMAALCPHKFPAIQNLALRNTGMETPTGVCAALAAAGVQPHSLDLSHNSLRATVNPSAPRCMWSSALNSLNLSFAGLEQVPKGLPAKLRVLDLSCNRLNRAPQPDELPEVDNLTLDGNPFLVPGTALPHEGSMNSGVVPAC

T2: recombinant mouse MD2 protein (mouse, UniProt Q9JHF9 19-160)
T2 construct: also called mMD2
T2 sequence (looked up): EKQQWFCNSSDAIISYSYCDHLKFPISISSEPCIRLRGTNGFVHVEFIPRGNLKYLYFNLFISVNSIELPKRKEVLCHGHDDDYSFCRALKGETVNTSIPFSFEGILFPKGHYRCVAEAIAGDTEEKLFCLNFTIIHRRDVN

B1: recombinant TREML1 ECD (human TREM-like transcript-1 extracellular domain) (ligand)
chain: QGIVGSLPEVLQAPVGSSILVQCHYRLQDVKAQKVWCRFLPEGCQPLVSSAVDRRAPAGRRTFLTDLGGGLLQVEMVTLQEEDAGEYGCMVDGARGPQILHRVSLNILPPEEEEETHKIGSLAENAFSDPAGSANPLEPSQDEKSIP
notes: Expressed in E. coli from pET30-TREML1 and purified on Ni-NTA; also called hTREML1; not shown: N-terminal polyhistidine tag from pET30
B2: recombinant human MD2 protein (receptor, UniProt Q9Y6Y9 19-160, looked up)
chain: QKQYWVCNSSDASISYTYCDKMQYPISINVNPCIELKRSKGLLHIFYIPRRDLKQLYFNLYITVNTMNLPKRKEVICRGSDDDYSFCRALKGETVNTTISFSFKGIKFSKGKYKCVVEAISGSPEEMLFCLEFVILHQPNSN
notes: also called hMD2; LY96

Assays:
BSA (negative control) = BSA (negative control) (UniProt P02769 25-607); test: solid phase binding assay, BSA coated as negative control
Procedure: (§1) To identify potential binding partners of TREML1 ECD, we used solid phase binding assay to assess interactions between TREML1 ECD and candidate proteins. Briefly, various candidate proteins and BSA (as a negative control) were coated on a 96-well plate and TREML1 ECD at various concentrations were added to the wells. After binding and washing, an anti-TREML1 antibody conjugated with horse radish peroxidase (HRP) was added to each well. After washing, HRP substrate, TMB (3,3′,5,5′-tetramethylbenzidine), was added. After reaction, absorbance at 450 nm was measured to assess TREML1 binding. An exemplary set of results is shown in FIG. 2, in which recombinant TREML1 ECD binds MD2 and TLR4 in a concentration-dependent manner.
(§2) To investigate the protein-protein interactions. Recombinant TLR4 (5 ug/ml in PBS), MD2 (5 ug/ml in PBS), CD14 (5 ug/ml in PBS), and BSA (negative control) proteins were plated separately on 96-well plates and incubated overnight at 4 degrees Celsius. The blocking buffer (2% BSA in PBS) was added to avoid the nonspecific binding for 2 hr at room temperature. A serial diluted TREML1 ECD (2.5 ug/ml to 156 ng/ml, 2-fold dilutions) solutions were added and allowed to incubate at room temperature for 2 hr. Then, anti-TREML1 antibody (1 ug/ml in PBS) was added for 1 hr. […] Absorbance at OD450/540 nm was measured with a microplate reader.

recombinant CD14 [1] = molecular target: T1, recombinant CD14; test: solid phase binding assay, CD14 coated at 5 ug/ml
Procedure: as §1, §2

[2] = molecular target: B1; test: solid phase binding assay, MD2 coated
Procedure: as §1, §2

[3] = molecular target: T2, recombinant mouse MD2 protein; test: solid phase binding assay, mTREML1 stalk coated, anti-His-HRP detection
Procedure: (§3) For TREML1 or mTREML1 stalk binding to human or mouse MD2 protein, TREML1 stalk or mTREML1 stalk (5 ug/ml in PBS) was coated separately on a 96-well plate. Recombinant hTLR4, hMD2, hCD14, or mMD2 was each serially diluted and added to the plates. Anti-His tag antibody-HRP was used as a detection antibody to detect the protein binding.

[4] = molecular target: B2; test: solid phase binding assay, TREML1 stalk coated, anti-His-HRP detection
Procedure: as §3

[5] = molecular target: T3, recombinant TLR4 (toll-like receptor 4) (human, UniProt O00206 24-631, limits assumed); test: solid phase binding assay, TREML1 stalk coated at 5 ug/ml, anti-His-HRP detection
T3 construct: also called hTLR4
Procedure: as §3

recombinant CD14 [6] = molecular target: T1, recombinant CD14; test: as above
Procedure: as §3

Chain of BSA (negative control) (P02769 25-607 limits assumed): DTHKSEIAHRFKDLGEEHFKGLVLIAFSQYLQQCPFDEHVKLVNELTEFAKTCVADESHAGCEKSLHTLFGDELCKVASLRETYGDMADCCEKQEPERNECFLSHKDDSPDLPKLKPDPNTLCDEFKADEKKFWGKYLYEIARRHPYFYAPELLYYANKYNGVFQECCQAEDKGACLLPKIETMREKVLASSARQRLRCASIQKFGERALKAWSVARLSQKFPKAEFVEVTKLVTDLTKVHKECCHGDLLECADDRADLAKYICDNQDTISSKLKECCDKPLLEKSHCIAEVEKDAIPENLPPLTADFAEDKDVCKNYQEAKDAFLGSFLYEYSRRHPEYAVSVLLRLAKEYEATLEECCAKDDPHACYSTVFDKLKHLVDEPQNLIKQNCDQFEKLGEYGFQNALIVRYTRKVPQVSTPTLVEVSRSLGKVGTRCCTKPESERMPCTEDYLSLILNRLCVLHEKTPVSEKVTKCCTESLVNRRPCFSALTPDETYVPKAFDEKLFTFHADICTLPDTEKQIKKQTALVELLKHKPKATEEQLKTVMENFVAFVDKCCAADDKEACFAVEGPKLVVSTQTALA
T3 sequence (O00206 24-631 limits assumed): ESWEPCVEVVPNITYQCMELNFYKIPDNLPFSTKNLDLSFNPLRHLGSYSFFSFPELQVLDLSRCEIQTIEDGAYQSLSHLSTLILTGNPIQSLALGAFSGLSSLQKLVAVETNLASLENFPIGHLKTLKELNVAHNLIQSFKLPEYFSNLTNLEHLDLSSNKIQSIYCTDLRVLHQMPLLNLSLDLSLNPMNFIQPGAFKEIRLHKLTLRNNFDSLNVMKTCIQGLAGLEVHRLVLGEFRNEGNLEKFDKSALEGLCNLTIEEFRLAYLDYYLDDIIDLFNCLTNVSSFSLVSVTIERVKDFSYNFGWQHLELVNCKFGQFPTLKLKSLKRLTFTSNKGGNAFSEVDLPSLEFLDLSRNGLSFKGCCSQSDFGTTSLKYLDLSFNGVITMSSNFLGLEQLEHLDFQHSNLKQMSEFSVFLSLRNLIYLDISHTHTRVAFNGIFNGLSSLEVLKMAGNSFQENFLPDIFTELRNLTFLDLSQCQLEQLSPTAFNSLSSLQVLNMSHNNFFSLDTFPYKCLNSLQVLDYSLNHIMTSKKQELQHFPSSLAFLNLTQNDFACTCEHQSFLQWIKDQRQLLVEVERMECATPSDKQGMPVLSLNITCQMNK

B1: no binding (tested: 2.5 ug/ml to 156 ng/ml TREML1 ECD) (BSA (negative control)); no binding (tested: 2.5 ug/ml to 156 ng/ml TREML1 ECD) (recombinant CD14 [1]).

B2: binds [2].

EGEEAEDEKETYRIGTGSLLEDPSLDPSASAGPHEFRRRENSIP (also called mouse TREML1 stalk) [mTREML1 stalk polypeptide (mouse)]: binds [3].

ILPPEEEEETHKIGSLAENAFSDPAGSANPLEPSQDEKSIP [TREML1 stalk polypeptide (human)]: binds [4]; no binding [5]; no binding (recombinant CD14 [6]).
